Target: ErbB2 (UniProt P04626)

**Q.** Src was tested. Which “Src activity (Src kinase assay, Src-Y416 phosphorylation) after trastuzumab treatment” value did it give?
**A.** The value was “trastuzumab inhibited Src activity in ErbB2 overexpressing cells”.

From patent US20190360057
